Results on 40 sequences are retold here after the nanobody polyreactivity screen of Harvey et al. (2022).

This series in a line: yeast display, Sf9 membrane polyspecificity reagent, FACS + sequencing; frameworks hold sequencing errors. The essentials:
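Galactose induction of a Saccharomyces cerevisiae BJ5465 synthetic nanobody display library ran 36–48 hours. The cells were then stained for 1 hour at 4 °C with 10% biotinylated, detergent-solubilized Sf9 membrane reagent, pulled down on streptavidin microbeads and FACS-sorted into low and high (top ~1%) gates on expression and reagent-binding fluorescence. Labels for polyreactivity follow the gate of origin.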
Consider “QVQLVESGGGLVQAGGSLRLICAASGLTFISYAMGWYRQAPGKERELVAAITYSGGSTYYADSVKGRFTISRDNAKNTVYLQMNSLKPEDTAVYYCAVEIPGLLWYLPTYDYWGQGTQVTVSS”, for which the “polyreactivity (PSR sort gate)” value is on record as “low polyreactivity”.

In the case of “QVQLVESGGGLVQAGGSLRLSCAASGSISYRYAMGWYRQAPGKERELVAGISRSGGSTSYADSVKGRFTISRDNAKNTVYLQMNSLKPEDTAVYYCNRPSSLAWPWTGSFSRYDYWGQGTQVTVSS”, the “polyreactivity (PSR sort gate)” value is reported as “low polyreactivity”.

Regarding “QVQLVESGGGLVQAGGSLRLSCAGSGFTFKWYAMGWYRQAPGKERELVAGISRGGTTNYADSVKGRFTISRDNAKNTVYLQLNSLKPEDTAVYYCAKTSYVSYRGLTYYYWGQGTQVTVSS”, the “polyreactivity (PSR sort gate)” value is recorded as “high polyreactivity”.

Turning to “QVHLVESGGGLVQAGGSLRLSCGASGSIFFIYAMGCYRQAPGKERELVATITSGGSTYYADSLKGRFTISRDNAKNTVYLQMNSLKPEDTAVYYCAVDEYFAFDYWGLGTQVTVSS”, the “polyreactivity (PSR sort gate)” value is reported as “low polyreactivity”.

As to “QVQLVESGGGLVQAGGSLRLSCAASGRIFSRYAMGWYRQAPGKEREMVAAIRSNGGRTYYADSVKGRFTISRDNAKNTVYLQMNSLKPEDTAVYYCAAAGGGKVSYRDYDYWGQGTQVTVSS”, the “polyreactivity (PSR sort gate)” value is given as “high polyreactivity”.

For “QVQLVESGGGLVQAGGSLRLSCAASGFNFSDYDMGWYRQAPGKERELVAAITYSGCSTYYADSVKGRFTISRDNAKKTVYLQMNSLKPEDTAVYYCAAVKSRYAEAVDYYYWGQGTQVTVSS”, the “polyreactivity (PSR sort gate)” value was “low polyreactivity”.

With “QVQLLESGGGLVHAGGSLRLSCAASGSIFPYYAMGWYRQAPGKERELVAAISDSGDSTYYADSVKGRFTISRDNAKNTVYLQMNSLKPEDTAVYYCNADSRTDYHPHGTMVGPDREYWGQGTQVTVSS”, the “polyreactivity (PSR sort gate)” value is reported as “low polyreactivity”.

Take “QVQLVESGGGLVQAGGSLRLSCAASGSIFQSYSMGWYRQAPGKERELVAAISRGGSTYYADSVKGRFTISRDNAKNTVYLQMNSLKPEDTAVYYCAAGSGGGKYLYYYWGQGTQVTVSS”: the “polyreactivity (PSR sort gate)” value was “low polyreactivity”.

With “QVQLLESGGGLVQAGGSLRLSCAASGSIFGRYVMGWYRQAPGKERELVPRITQSGGSTYYADSVKGRFTISRDNAKNTVYLQMNSLKPEDTAVYYCNVARWGNIPVGEYDYWGQGTQVTVSS”, the “polyreactivity (PSR sort gate)” value was “high polyreactivity”.

For the sequence “QVQLVESGGGLVQAGGSLRLSCAASGSTLGDNGMGWYIQAPGKERELVAAITIGGSTTYADSVKGRFTISRDNAKNTVYLQMNSLKPEDTAVYYCAADQQARDQYSDWTEYDYWGQGTQVNVSS”, the “polyreactivity (PSR sort gate)” value is reported as “low polyreactivity”.

For the sequence “QVQLVESGGGLVQAGGSLRLSCAASGRTFVCNAMGWYRQAPGKERELVAAISSSGTATYYADSVKGRFTISRDNAKNTVYLQMNSLKPEDTAVYYCAKDLLYQPTIRDYWGQGTQVTVSS”, the “polyreactivity (PSR sort gate)” value is listed as “low polyreactivity”.

Take “QVQLVESGGGLVQAGGSLRLSCAASGRIFWYYAMGWYRQAPGKERELVAAISRSGGSTYYADSVKGRFTISRDNAKNTVYLQMNSLKPEDTAVYYCAAGARAFDDDSWGQGTQVTVSS”: the “polyreactivity (PSR sort gate)” value was “low polyreactivity”.

Regarding “QVQLVESGGGLVQAGGSLRLSCAASGSIFYYYTMGWYRPAPGKERELVASITGGGSTYYADSVKGRFTISRDNAKNTVYLQMNSLKPDDTAVYYCAAYRYGVTNAYGYWGQGTQVTVSS”, the “polyreactivity (PSR sort gate)” value is reported as “high polyreactivity”.

Take “QVQLVESGGGLVQAGGSLRLSCAASGRIFGWYAMGWYRQAPGKERELVAAITSGSRTSYADSVKGRFTISRDNAKNTVYLQMNSLKPVDTAVYYCNRVSHLDYYWGQGTQVTVSS”: the “polyreactivity (PSR sort gate)” value is on record as “high polyreactivity”.

For “QVQLVESGGGLVQAGGSLRLSCAASGFIFYSYTMVWYRQAPGKERELVASISRRGGITYYADSVKGRFTISRDNAKNTVYLQMNILIPEDTAVFYCAAYSWRRQGDHYDYWGQGTKVTVSS”, the “polyreactivity (PSR sort gate)” value is reported as “high polyreactivity”.

“QVQLVESGVGLVQAGGSLRLSCAASGITFIPYAMGWYRQAPGKERELVASISDGGGTNYADSVKGLFTISRDNAKNTVYLQKNSLNPEDTAVYYCATYASTYSYYGGDYWGQGTPVTVSS”: the “polyreactivity (PSR sort gate)” value was “low polyreactivity”.

For the sequence “QVQLVESGGGLVRAGGSLRLSCAASGSTFRQYAMGWYRQAPGKERDLVAAINWSGSSTYYADSVKGRFTISRDNAKNTVYLQMNSLKPEATAVYYCAARRVLATFQHSNSHYYWGQGTQVTVSS”, the “polyreactivity (PSR sort gate)” value was “high polyreactivity”.

As for “QVQLVESGGGLVQAGGSLRLSCAASGRTFYRNAMGWYRQAPGKERELVATITRGGSTNYADSVKGRFTISRDNAKNTVYLQMNSLKPEDTAVYYCAAAQPGTNAYRVGSWGQGTQVTVSS”, the “polyreactivity (PSR sort gate)” value is “high polyreactivity”.

On to “QVQLVESGGGLVQAGGSLRLSCAASGIIFITYAMGWYRQAPGKERELVAAITNSGGGTYYADSVKGRFTNSRDNAKNTVYLQMNSLKPEDTAVYYCAARKTAYGYRYDYWGQGTQVTVSS”, for which the “polyreactivity (PSR sort gate)” value is “high polyreactivity”.

For “QVQLVESGGRLVQARGSLRLSCAASRSTFPFYYMGWYRQAPGKERELVAAHTRRCGSTYYAVSVKGRFTISRDNGKNTFYLQMNSLKPEDTAVYYCAADDYTITIYYILDYWGQGTQVTVSS”, the “polyreactivity (PSR sort gate)” value is recorded as “low polyreactivity”.

Consider “QVQLVESGGGLVQAGGSLRLSCAASGSIFGYNVMGWYRQAPGKERDLVAAITYSGGSTYYADSVKGRFTISRDNAKNTVYLQMNSLKPEDTAVYYCAKVTGRRFPAYGYDHWGQGTQVTVSS”, for which the “polyreactivity (PSR sort gate)” value is “high polyreactivity”.

“QVQLVESGGGLVQAGGSLRLSCAASGSTFRKYAMGWYSQAPGKERELVAAIRRNGVSTYYADSVKGRFTISLDNAKNTVYLQMNSLKPEDTAVYYCNARTKPDYDWGQGTQVTVSS”: the “polyreactivity (PSR sort gate)” value was “high polyreactivity”.

Turning to “QVQLVESGGGLVQAGGSLRLSCAASGSIFDVYAMGWYRQAPGKERELVAAITGGGSTYYADSVKGRFTISRDNAKNTVYLQMNSLKPEDTAVYYCNADRRRRSGGFAGWHFQRNDYWGQGTQVTVSS”, the “polyreactivity (PSR sort gate)” value was “low polyreactivity”.

Turning to “QVQLVESGGGLVQAGGSLRLSCAASGRIFPTYTMGWYRQAPGKERELVAAIRRGGGRTYYADSVKGRFTISRDNAKNTVYLQMNSLKPEDTAVYYCAAPFYRQSLIEYDYWGQGTQVTVSS”, the “polyreactivity (PSR sort gate)” value is “high polyreactivity”.

With “QVQLVESGGGLVQAGGSLRLSCAASGLIFSFYDMGWYRQAPGKEREFVAAISGSGGSTYYADSVKGRFTISRDNEKNTVYLHMNILKPEDTAVYYCAAEYFTFYWKLDYWGQGTQVTVSS”, the “polyreactivity (PSR sort gate)” value is on record as “high polyreactivity”.

Turning to “LVQLVESGGGLVEAGGSLRLSWAASGIIFYYYAMGWYRQAPGKEREFVAGIRWSSGSTYYADSVKGRFTISRDNAKNTVYLQMNSLKPEDTAVYYCAAAYLSWYGGYYYWGQGTQVTVSS”, the “polyreactivity (PSR sort gate)” value is “low polyreactivity”.

For “QVQLVESGGGLVQAGGSLRLSCAASGSIFYGYAMGWYRQAPGKERELVAAISWTGGRTYYADSVKGRFTISRDNAKNTVYLQMNSLKPEDTAVYYCNVRRYSVVSGGYWGQGTQVTVSS”, the “polyreactivity (PSR sort gate)” value is “high polyreactivity”.

Take “QVQLVESGGGLVQAGGSLRLSCAASGSTFYYYAMGWYRQAPGKERELVAAITKSRGSTYYADSVKGRFTISRDNAKNTVYLQMNSLKPEDTAVYDCAAYLRSGYKFDYWGQGTQGTVSS”: the “polyreactivity (PSR sort gate)” value is on record as “low polyreactivity”.

On to “QVQLVESGGGLVQAGGSLRLSCAASGRTFAYYAMGWYRQAPGKERELVAAITLRSGSTYYADSVKGRFTISRDNAKNTVYLQMNSLKPEDTAVYYCATDSLGVDRPNYNYWGQGTQVTVSS”, for which the “polyreactivity (PSR sort gate)” value is on record as “low polyreactivity”.

With “QVQLVDSGGGLVQAGGSLRLSCAASGNTFSGNTMGWYRQAPGKERELVAAIRFTGGSTTYADSVKGRFTISRDNAKNTVYLQMNSLKPEDTAVYYCNTDWVSFRSIYHEYDYWGQGTQVTVSS”, the “polyreactivity (PSR sort gate)” value was “low polyreactivity”.

For “QVQLVESGGGLVQAGGSLRLSCAASGRTFAYNAMGWYRQAPGKERELVASITSGGSTNYSDSVKGRFTISRDNAKNTVYLQMNSLKPEDTAVYYCNKDGKYHRVLYDYCGQGTQVTVSS”, the “polyreactivity (PSR sort gate)” value is given as “low polyreactivity”.

Regarding “QVQLVESGGGLVQAGGSLRLSCAASGSIFWSYAMGWYRQAPGKERELVASISRSTGRTRYADSVKGRFTISRDNAKNTVYLQMNSLKPEDTAVYYCAATRRAGFTTAKFDYWGQGTQVTVSS”, the “polyreactivity (PSR sort gate)” value is reported as “high polyreactivity”.

In the case of “QVQLVESGGGLVQAGGSLRLSCAASGSIFGTYAMGWYRQAPGKEREFVADISGIGTSTYYADSVKGRFTISRDNAKNTVYLQMNSLKPEDTAVYYCAACYPPLRGYYYWGQGTQVTVSS”, the “polyreactivity (PSR sort gate)” value is on record as “low polyreactivity”.

On to “QVQLVESGGGLVQAGGSLRLSCAASGSTFDGYTMGWYRQAPGKERELVAGISWSGTSTYYADSVKGRFTISRDNAKNTVYLQMNSLKPEDTAVYYCAADRYWFRLYTAGVTHRFGYWGQGTQVTVSS”, for which the “polyreactivity (PSR sort gate)” value was “low polyreactivity”.

Turning to “QVQLVESGGGLVQAGGSLRLSCAPSGYIFDIYAMVWYRQAPGKERELVAGITRNGGSTYYADSVKGRFTISRDNAKNTVYLQMNSLKPEDTAVYYCAAGWITRSLYHKYYSWGQGTQVTVSS”, the “polyreactivity (PSR sort gate)” value was “high polyreactivity”.

Consider “QVQLVESGGGLVQAGGSLRLSCAASGSTFFGYTMGWYRQARGKERELVAAITRRGGSTYYADSVKGRFTISRDNAKNTVYLQLNSLKPEDTAVYYCNAVSKSTNYAGRYDYWGQATQVTVSS”, for which the “polyreactivity (PSR sort gate)” value is given as “high polyreactivity”.

For the sequence “QVQHVESGGGLVQAGGSLRLSCAASGSIFWYYAKGWYRQAPGKERELVATITSGGSTSYADSVKGRFTISRDNAKNPVYLQMNSLKPEDTAVYYCAAARLFTTYDWGQGTQVTVSS”, the “polyreactivity (PSR sort gate)” value is “low polyreactivity”.

Turning to “QVQLVESGGGLVQAGGSLRLSCAASGRTFYPNVMGWYRQAPGKERELVAAITSGGSTYYADSVKGRFTISRDNAKNTVYLQMNSLKPEDTAVYYCAVAYAGGGSRKYDYWGQGTQVTVSS”, the “polyreactivity (PSR sort gate)” value is “low polyreactivity”.

“QVQLVESGGGLVQAGGSLRLSCAASGFTFTSYTMGWYRQAPGKERELVAVISWSGGGTYYADSVKGRFTISRDNAKNTVYLQMNSLKPEDTAVYYCNKAPTNLFGGRYDYWGQGTQVTVSS”: the “polyreactivity (PSR sort gate)” value is recorded as “low polyreactivity”.

On to “QVQLVESGGGLVQAGGSLRLSCAASGFIFRYYAMGWYRQAPGKERELVARIRSSGGSTYYADSVKGRFTISRDNAKKTVYLKMNSLKPEDTAVYYCDTVSYITYYGGYGYWGQGTQVTVSS”, for which the “polyreactivity (PSR sort gate)” value is recorded as “high polyreactivity”.
